These results are taken from paper PMC13182210, “Time‐Resolved Native Mass Spectrometry Reveals Reversible Light‐Driven Oligomerization of Arabidopsis Cryptochrome 1 and Its Antagonism by BIC1” (Angewandte Chemie (International Ed. in English), 2026).

B1: Blue-light Inhibitor of Cryptochromes 1 (BIC1) (natural protein, UniProt Q9LXJ1 1-140, looked up)
chain: MMNIDDTTSPMAHPIGPSQPPSDQTKQDPPSLPQEAASSVSADKKDLALLEEKPKQSQEEDRVDTGRERLKKHRREIAGRVWIPEIWGQEELLKDWIDCSTFDTCLVPAGISSARTALVEEARRAASASGGLHNRCLILR
notes: The calculated mass may include a tag; Construct details probably stand in the Supporting Information
B2: Arabidopsis thaliana cryptochrome 1 photolyase homology region (CRY1-PHR) (domain or fragment, UniProt Q43125 1-509, looked up)
chain: MSGSVSGCGSGGCSIVWFRRDLRVEDNPALAAAVRAGPVIALFVWAPEEEGHYHPGRVSRWWLKNSLAQLDSSLRSLGTCLITKRSTDSVASLLDVVKSTGASQIFFNHLYDPLSLVRDHRAKDVLTAQGIAVRSFNADLLYEPWEVTDELGRPFSMFAAFWERCLSMPYDPESPLLPPKKIISGDVSKCVADPLVFEDDSEKGSNALLARAWSPGWSNGDKALTTFINGPLLEYSKNRRKADSATTSFLSPHLHFGEVSVRKVFHLVRIKQVAWANEGNEAGEESVNLFLKSIGLREYSRYISFNHPYSHERPLLGHLKFFPWAVDENYFKAWRQGRTGYPLVDAGMRELWATGWLHDRIRVVVSSFFVKVLQLPWRWGMKYFWDTLLDADLESDALGWQYITGTLPDSREFDRIDNPQFEGYKFDPNGEYVRRWLPELSRLPTDWIHHPWNAPESVLQAAGIELGSNYPLPIVGLDEAKARLHEALSQMWQLEAASRAAIENGSEEG
notes: Cryptochrome 1 of Arabidopsis thaliana, photolyase homology region (PHR) domain; Construct limits, tags and host are not in the main text and probably stand in the Supporting Information; The oligomeric state depends on light: mostly monomer in the dark, tetramer under blue light; also called CRY1 PHR domain; wild-type CRY1; source: recombinant, purified

Series [1] deals with CRY1^L407F mutant of the Arabidopsis CRY1 PHR domain (Arabidopsis thaliana) (UniProt Q43125). As to the kind of experiment: SEC; analytical size exclusion chromatography, samples kept in darkness. (In general: Size exclusion chromatography separates by hydrodynamic size, large species first.)
Series [2] has the same target. As to the kind of experiment: native MS; LILBID-MS in darkness; CRY1 alone or with BIC1 in an equimolar ratio.
Series [3] has the same target. As to the kind of experiment: native MS; quantitative LILBID-MS (qLILBID-MS), label-free, in the dark; mean of three measurements.
Series [4] has as its target B2. Described as above. To be noted: both partners purified.
For series [5], the target named is B2. As to the kind of experiment: native MS; quantitative LILBID-MS (qLILBID-MS), label-free, under blue light; mean of three measurements. The settings on record: both partners purified.
Series [6] deals with the molecule itself. Put plainly: native MS; nESI-MS with a blue-light LED on the sample, static and time-resolved, with 100 µM ATP; two-step reversible kinetic model monomer to dimer to tetramer.
Series [7] concerns the molecule itself. As to the kind of experiment: native MS; LILBID-MS with a blue-light LED on the sample throughout; CRY1 alone, with BIC1 in an equimolar ratio, or BIC1 added to pre-illuminated tetrameric CRY1.
Series [8] concerns the molecule itself. Put plainly: native MS; nESI-MS with a blue-light LED on the sample, static and time-resolved, room temperature, no ATP; two-step reversible kinetic model monomer to dimer to tetramer.

Turning to “CRY1^L407F mutant of the Arabidopsis CRY1 PHR domain (from UniProt Q43125 1-681) (domain or fragment)”, the stoichiometry N in series [1] and in series [2] was 4 throughout.

In the case of B1, the Kd in series [3] was 100 nM; in series [4] it was approximately 1200 nM; in series [5] it was 130 ± 90 nM.

Take B2: in series [6], the “fold decrease of dimer dissociation rate with 100 µM ATP against no ATP” value was approximately 10 fold, the “fold decrease of tetramer dissociation rate with 100 µM ATP against no ATP” value is approximately 2 fold, the “fold increase of dimer-to-tetramer association rate with 100 µM ATP against no ATP” value was 4 fold and the “fold increase of monomer-to-dimer association rate with 100 µM ATP against no ATP” value is approximately 2 fold. Further, in series [7], the “stoichiometry N” value is 4. Further, in series [8], the “half-life of tetramer formation (single-exponential fit)” value was approximately 18 s.

The stoichiometry N is the number of molecules, sites or subunits per partner or assembly. What is called Kd is the concentration at which binding is half-saturated. The low end stands for tighter binding, the high end for weaker binding.
